Source: article PMC2726289

Target: peptide from Dynamin1 proline-rich domain
Assay: not stated; monomeric GRAF1 SH3 domain with a peptide from the Dynamin1 proline-rich domain; method in Figure S2D or the supplement, not shown

- Kd: 106 µM
B1: Monomeric GRAF1 SH3 domain (domain or fragment)
chain: TPFRKAKALYACKAEHDSELSFTAGTVFDNVHPSQEPGWLEGTLNGKTGLIPENYVEFL
